# From article PMC7005798, “Increased circulating levels of Factor H-Related Protein 4 are strongly associated with age-related macular degeneration” (Nature Communications, 2020)
# What was measured:
# C3b [1] = target: T1, C3b (human, UniProt P01024 23-667; P01024 749-1663); assay: ELISA; solid-phase binding assay: C3b adsorbed on microtiter wells (1 ug per well); 100 nM FH or FHL-1 mixed with rising FHR-4 up to 500 nM, 4 h at room temperature in 20 mM HEPES, 130 mM NaCl, 0.05% Tween-20, pH 7.3; bound FH or FHL-1 detected with the OX23 antibody; details: both partners purified
# T1 construct: complement C3 beta chain, human; Two disulfide-linked chains cut from the C3 precursor; also called human C3b; complement C3b; source: bought: VWR International, catalogue no; 204860 (purified)
# T1 sequence (P01024 23-667, chain 1 of 2): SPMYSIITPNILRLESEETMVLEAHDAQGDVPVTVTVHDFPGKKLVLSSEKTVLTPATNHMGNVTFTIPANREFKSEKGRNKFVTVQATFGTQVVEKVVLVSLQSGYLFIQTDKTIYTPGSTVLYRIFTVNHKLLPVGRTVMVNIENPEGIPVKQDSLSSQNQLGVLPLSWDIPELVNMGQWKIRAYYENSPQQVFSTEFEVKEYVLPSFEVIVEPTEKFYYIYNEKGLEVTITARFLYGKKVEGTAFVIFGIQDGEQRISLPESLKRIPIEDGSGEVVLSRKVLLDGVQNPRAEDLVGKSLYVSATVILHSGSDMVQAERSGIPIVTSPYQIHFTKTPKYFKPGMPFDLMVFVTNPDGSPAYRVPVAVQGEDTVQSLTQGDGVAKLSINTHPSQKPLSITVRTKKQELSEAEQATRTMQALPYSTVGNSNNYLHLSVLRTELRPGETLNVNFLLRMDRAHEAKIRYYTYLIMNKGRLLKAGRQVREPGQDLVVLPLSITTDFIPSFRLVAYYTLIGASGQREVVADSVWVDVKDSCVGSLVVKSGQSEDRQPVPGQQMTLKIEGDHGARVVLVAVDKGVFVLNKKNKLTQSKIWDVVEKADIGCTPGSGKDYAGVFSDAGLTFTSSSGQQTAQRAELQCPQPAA
# T1 sequence (P01024 749-1663, chain 2 of 2): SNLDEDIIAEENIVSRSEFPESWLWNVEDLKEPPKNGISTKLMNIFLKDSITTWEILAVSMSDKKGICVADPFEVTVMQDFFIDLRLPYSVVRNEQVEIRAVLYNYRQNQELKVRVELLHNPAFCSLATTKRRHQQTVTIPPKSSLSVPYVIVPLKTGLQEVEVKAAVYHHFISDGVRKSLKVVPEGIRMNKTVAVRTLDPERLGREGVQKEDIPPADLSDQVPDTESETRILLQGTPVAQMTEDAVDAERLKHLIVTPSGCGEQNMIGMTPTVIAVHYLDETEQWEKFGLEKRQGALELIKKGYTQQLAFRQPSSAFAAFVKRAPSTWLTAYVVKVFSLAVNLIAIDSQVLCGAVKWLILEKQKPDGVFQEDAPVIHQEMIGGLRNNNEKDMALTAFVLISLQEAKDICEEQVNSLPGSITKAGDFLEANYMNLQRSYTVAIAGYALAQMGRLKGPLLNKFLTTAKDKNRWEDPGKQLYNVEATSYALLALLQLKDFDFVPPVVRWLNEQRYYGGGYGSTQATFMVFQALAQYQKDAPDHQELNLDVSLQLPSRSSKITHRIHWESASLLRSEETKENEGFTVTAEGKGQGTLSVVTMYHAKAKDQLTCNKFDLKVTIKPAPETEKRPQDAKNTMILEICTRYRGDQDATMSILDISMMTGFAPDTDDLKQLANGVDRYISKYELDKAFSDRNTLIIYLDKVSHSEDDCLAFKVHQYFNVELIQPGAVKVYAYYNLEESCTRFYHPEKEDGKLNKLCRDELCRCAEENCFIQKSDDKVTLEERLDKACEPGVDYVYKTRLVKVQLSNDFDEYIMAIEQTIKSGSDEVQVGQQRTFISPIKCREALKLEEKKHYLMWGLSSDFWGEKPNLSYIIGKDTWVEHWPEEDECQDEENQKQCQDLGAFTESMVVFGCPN
# C3b [2] = target: T1, C3b; assay: cell-based or functional assay
binding result (C3b [1]),"inhibition of FHL-1/FI-mediated C3b α-chain cleavage in the fluid phase (blocks FHL-1 with C3b); FHR-4 up to a 5-fold molar excess over FHL-1, dose-dependent (C3b [2])",Binder
binds,,"complement factor H (FH) (natural protein, human, UniProt P08603 19-1231, looked up, complement factor H, commercially available purified protein; also called CFH; source: bought: Sigma-Aldrich, catalogue no; C5813 (purified)) EDCNELPPRRNTEILTGSWSDQTYPEGTQAIYKCRPGYRSLGNVIMVCRKGEWVALNPLRKCQKRPCGHPGDTPFGTFTLTGGNVFEYGVKAVYTCNEGYQLLGEINYRECDTDGWTNDIPICEVVKCLPVTAPENGKIVSSAMEPDREYHFGQAVRFVCNSGYKIEGDEEMHCSDDGFWSKEKPKCVEISCKSPDVINGSPISQKIIYKENERFQYKCNMGYEYSERGDAVCTESGWRPLPSCEEKSCDNPYIPNGDYSPLRIKHRTGDEITYQCRNGFYPATRGNTAKCTSTGWIPAPRCTLKPCDYPDIKHGGLYHENMRRPYFPVAVGKYYSYYCDEHFETPSGSYWDHIHCTQDGWSPAVPCLRKCYFPYLENGYNQNYGRKFVQGKSIDVACHPGYALPKAQTTVTCMENGWSPTPRCIRVKTCSKSSIDIENGFISESQYTYALKEKAKYQCKLGYVTADGETSGSITCGKDGWSAQPTCIKSCDIPVFMNARTKNDFTWFKLNDTLDYECHDGYESNTGSTTGSIVCGYNGWSDLPICYERECELPKIDVHLVPDRKKDQYKVGEVLKFSCKPGFTIVGPNSVQCYHFGLSPDLPICKEQVQSCGPPPELLNGNVKEKTKEEYGHSEVVEYYCNPRFLMKGPNKIQCVDGEWTTLPVCIVEESTCGDIPELEHGWAQLSSPPYYYGDSVEFNCSESFTMIGHRSITCIHGVWTQLPQCVAIDKLKKCKSSNLIILEEHLKNKKEFDHNSNIRYRCRGKEGWIHTVCINGRWDPEVNCSMAQIQLCPPPPQIPNSHNMTTTLNYRDGEKVSVLCQENYLIQEGEEITCKDGRWQSIPLCVEKIPCSQPPQIEHGTINSSRSSQESYAHGTKLSYTCEGGFRISEENETTCYMGKWSSPPQCEGLPCKSPPEISHGVVAHMSDSYQYGEEVTYKCFEGFGIDGPAIAKCLGEKWSHPPSCIKTDCLSLPSFENAIPMGEKKDVYKAGEQVTYTCATYYKMDGASNVTCINSRWTGRPTCRDTSCVNPPTVQNAYIVSRQMSKYPSGERVRYQCRSPYEMFGDEEVMCLNGNWTEPPQCKDSTGKCGPPPPIDNGDITSFPLSVYAPASSVEYQCQNLYQLEGNKRITCRNGQWSEPPKCLHPCVISREIMENYNIALRWTAKQKLYSRTGESVEFVCKRGYRLSSRSHTLRTTCWDGKLEYPTCAKR"
,2.5 fold molar excess of FHR-4 over FHL-1 for 50% reduction,"Recombinant Factor H-Related Protein 4 (FHR-4), FHR-4B variant (natural protein, human, UniProt Q92496-3 20-331, looked up) EVKPCDFPEIQHGGLYYKSLRRLYFPAAAGQSYSYYCDQNFVTPSGSYWDYIHCTQDGWSPTVPCLRTCSKSDIEIENGFISESSSIYILNKEIQYKCKPGYATADGNSSGSITCLQNGWSAQPICIKFCDMPVFENSRAKSNGMRFKLHDTLDYECYDGYEISYGNTTGSIVCGEDGWSHFPTCYNSSEKCGPPPPISNGDTTSFLLKVYVPQSRVEYQCQSYYELQGSNYVTCSNGEWSEPPRCIHPCIITEENMNKNNIQLKGKSDIKYYAKTGDTIEFMCKLGYNANTSVLSFQAVCREGIVEYPRCE"
